Test: yeast display, Sf9 membrane polyspecificity reagent, FACS + sequencing; frameworks hold sequencing errors
How it was run: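 A nanobody's polyreactivity label depends on the gate it was sorted from. Yeast display cells were stained with 10% biotinylated, detergent-solubilized Sf9 membrane reagent for 1 hour at 4 °C, enriched on streptavidin microbeads and sorted by FACS. The low and high (top ~1%) gates were set on anti-HA fluorescence for expression and streptavidin fluorescence for reagent binding.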

Sequence | polyreactivity (PSR sort gate)
QVQLVESGGGLVQAGGSLRLSCAASGLIFRRYAMGWYRQAPGKERELVAAINLSGGSTYYADSVKGRFTISRDNAKNTVYLQMNSLKPEDTAVYYCNAVSVYSLPRVGGRYDYWGQGTQVTVSS | high polyreactivity
QVQLVESGGGLVQAGGSLRLSCAASGRTFTFNAMGWYRQAPGKERELVARIDWRGITYADSVKGRFTISRDNAKNTVYLQMNSLKPEDTAVYYCAAVWLHISYYGKYDYWGQGTQVTVSS | low polyreactivity
QVQLVESGGGLVQAGGSLRLSCAASGLIFKSYAMGWYRQAPGKERELVATISSSGSTNYADSVKGRFTISRDNAKNTVYLQMNSLKPEDTAVYYCNADDEVWWWIYDYWGQGTQVTVSS | low polyreactivity
QVQLVESGGGLVQAGGSLRISCAASGRIFYCYVMGWYRQAPGKERELVAAINLSGTSTYYADSVKGRFTISRDNAKNTVYLQMNSLKPEDTAVYYCAADQVGWTYDYWGQGTQVTVSS | low polyreactivity
QVQLVESGGGLVQAGGSLRFSCAASGLIFRGYTMGWYRQAPGKEREFVAAITRRGTSTYYADSVKGRFTISRDNAKNTVYLQINRLKPEDTAVYYCAARSVSGPRGYPYDYWGQGTQVTVSS | high polyreactivity
QVQLQDSGGGLVQAGGSLRLSCAASGTIIWYSDLGWYRQAPGKERKFVAGIGFGSNSNFADSVRGRFTISRDNAKITVYLQMNSLKPEDTAVYYCEAVWFDYSTHRYWGQGTQVTVCS | high polyreactivity
QVQLVESGGGLVQAGGRLRLTCAASGYIFDVNAMGWYRHAPGKERELVAAISQRGTRTYYADSVKGRFTISRDNAKNSVYLQMNSLKPEDTAVYFCNRGGWRQYDSWVQGTQVTVSS | high polyreactivity
QVQLVESGGGLVQAGGSLRLSCAASGIIFRANAMGWYRQAPGKERELVAAISSSGGSTFYADSVKGRFTISRDNAKNTVYLQMNSLKPEDTAVYFCAAGRSKFAWSEYEYWGQGTQVSVSS | low polyreactivity
QVQLVESGGGLVQAGGSLRISCAASRSIFPLNAMGWYRQAPGKERELVAAITRSGGSTYYADSVKGRFTISRDNAKNTVYLQMNSLKPEDTAVYYCATDPEWPLPAYYYWGQGTQVTVSS | low polyreactivity
QVQLLESGGGLVQAGGSDRLSCAASGSIFSFNAMGWYRQAPGKERELVAAISRGGSTYYADSVKGRFTISRDNAKNTVYLQLNSLKPEDTAVYYCAADIYGHSYSYYLGEYWGQGTQVTVSS | high polyreactivity
QVQLVESGGGLVQAGGSLRLSCAASGFTFTQYVKGWYRQAPGKERELVAAITRGGGSTYYADSVKGRFTISRDNAKNTVYLQMNRLKPEDTAFYYCATRRVEYIRGWVEYDYWGQGTQVTVSS | low polyreactivity
QVQLVESGGGLVQAGGSLRLSCAASGYTLYLNAMGWYSQAPGKERELVARISGGGSTNYADYVKGRFTMSRDNAKNTVYLQMNSLKPEDTAVYYCAATIFAYGYRSFKLDYWGQGTQVTVSS | low polyreactivity
QVQLRESGGGLVQAGGSLRLSCAASGRIFSVYAMGWDRQAPGKERELVAAITRVGSTNYADSVKGRFTISRDNAKNTVYLQMNSLKPEDTAVYYCAARSTGYPTGRMYYWGQGTQVTVSS | high polyreactivity
QVQLVESGGRLVQAGGSLRLSCAASGRIFALNAMGWYRQAPGKERELVAAITWGGGSTYYADSVKGRFTISRDNAKNTVYLQMNSLKPVDTAVYYCAARYVFWPYWISGDSWGQGTQVTVSS | low polyreactivity
QFQLVESGGGLVQAGRSLRLSCAASGSIFWSNAMGWYRQAPGKERELVAAITTSDGSKYYADSVKGRFRISRDNANNTVYLQMNILKPEDTAVYYCAADTYFVCYGYYYWGQGTQVTVSS | low polyreactivity
QVQLVESGGGLVQAGGSLRLSCAASGFIFSYYAMVWYRQAPGTERELVAAISSSGSRTYYADSVKGRFTISRDNAKNTVYLQMNSLKPEDTAVYYCAARGAAKYGYWGQGTQVTVSS | high polyreactivity
QVQLVESGGGLVQAGGSLRLSCAASGRILWYNAMGWYRQAPGKERELVAAINRGVSTNYADSVKGRFTISRDNAKNTVYLQMNSLKPEDTEVYYCAAVHDRLWYRSAYDYWRQGTQVTVSS | low polyreactivity
QVQLVESGGGLVQAGGSLRISCAASGRIFSFYAMGWYRQAPGKERELVAAISYSDGSTYYADSVKGRFTISRDNAKNTVYLQMNSLKPEDTAVYYCAKYGYDHDYNYWGQGTQVTVSS | low polyreactivity
QVQLVESGGGLDQAGGSLRLSCAASGLIFYTYAMGWYRQAPGKERELVADINRSDGSTYYADSVKGRFTISRDNAKNTVYLQMNSLKPEDTAVYYCAVVGTYYSRFGGRYYYWGQGTQVTVSS | low polyreactivity
QVQLVESGGGLVQAGGSLRLSCAAYGLIFGHYAMGWYRQEPGKERELVAAITTRGSSTYYADSVKGRFTISRDNAKNTVYLQMNSLKPEDTAVYYCNAKLVYGTTYKFDNWGQGTQVTVSS | high polyreactivity
QVQLVQSGGGLVQAGGSLSLSCAASGSIFNYNAMGWYRQAPGKERELVAAITSADGRTFYADSVKGRFTISRDNAKNTVYLQMNSLKPEDTAVYYCAAERTSRYSTYEYWGQGTQVTVSS | low polyreactivity
